Columns and labels:
[1] = target: T1, K41 Amadori-modified glycated CD59 (GCD59) (human, UniProt P13987 26-102, Amadori-modified (glycated) lysine at K41, numbered on SEQ ID NO: 1); assay: sandwich ELISA on urine dilutions (6, 3, 1.5, 0.75, 0.37, 0.18 %): H9 capture, D2 detection, HRP secondary antibody, OD 450 nm converted to SPU with the calibration curve
T1 construct: also called Amadori-modified GCD59; Amadori-modified hGCD59
T1 sequence: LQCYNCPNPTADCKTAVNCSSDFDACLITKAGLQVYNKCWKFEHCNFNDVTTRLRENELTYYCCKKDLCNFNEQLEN
Protocol: GCD59 detection in urine samples was carried out using detection antibody D2, described above, specific for Amadori-modified GCD59. Assay plates were first coated with CD59 capture antibody. H9. Urine samples were obtained from two subjects, one known to have a high level of HbA1C (HbA1C-H) and one known to have a low level of HbA1C (HbAC1-L). High levels of HbA1C are a known indicator of elevated blood glucose. Samples were prepared by first adding beta-mercaptoethanol (BME) to a final concentration of 5%. Samples were then boiled at 100° C. for 5 min and centrifuged to pellet any debris. Supernatants were then isolated for the assay. A surrogate compound standard, as shown in FIG. 27 of U.S. Pat. No. 9,417,248, was used to prepare a dilution series for generating a calibration curve. The Amadori-modified GCD59 surrogate included synthetic compounds including capture and detection peptides linked by a flexible linker.
Standard samples, urine samples, as well as control samples [serum dilution buffer (50 mM Acetic acid/Na acetate; 2% NonIdet P40 Substitute; 0.15% Tween 20; 0.1% Triton X-100; 50 ppm ProClin 300) only] were added to the assay plate in triplicate. Urine samples were further diluted using serum dilution buffer to create a series of conditions ranging from 6% v/v urine sample to 0.2% urine sample in serum dilution buffer. […]

CD59 (human CD59, hCD59) = target: T2, CD59 (human CD59, hCD59) (human, UniProt P13987 26-102); assay: hybridoma antibody characterisation, method not described
T2 construct: also called non-glycated CD59
T2 sequence: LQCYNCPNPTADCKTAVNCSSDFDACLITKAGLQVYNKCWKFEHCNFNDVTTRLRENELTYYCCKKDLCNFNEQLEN

binding result [1]: binds
binding result (CD59 (human CD59, hCD59)): binds
B1: antibody H9 (clone H9), CD59 capture antibody (antibody, mouse IgG1, kappa, V domains shown)
VH: EVQLVESGGDLVKPGGSLKLSCAASGFTFSSYGMSWVRQSPDKRMEWVATISSGGSYTYYPDSVKGRFTVSRDNAKNTLYLQMSSLRSEDTAIFYCVRDRYDGMDYWGQGTSVTVSS
VL: DVVMTQSPLSLPVSLGDQASISCRSSQSLVHSNGNTYLQWYLQKPGQSPNLLIYKVSNRFSGVPDRFSGSGSGTDFTLKISRVEAEDLGVYFCSQSTHVPFTFGSGTKLEIKR
notes: Mouse hybridoma monoclonal antibody

Reference: patent publication US20210284751A1 (MELLITUS, published 2021)
